Experimental data published in patent US20260325634 (published 2026).

Biological target: T1, CD123 (IL-3R alpha) (human, UniProt P26951)
T1 chain: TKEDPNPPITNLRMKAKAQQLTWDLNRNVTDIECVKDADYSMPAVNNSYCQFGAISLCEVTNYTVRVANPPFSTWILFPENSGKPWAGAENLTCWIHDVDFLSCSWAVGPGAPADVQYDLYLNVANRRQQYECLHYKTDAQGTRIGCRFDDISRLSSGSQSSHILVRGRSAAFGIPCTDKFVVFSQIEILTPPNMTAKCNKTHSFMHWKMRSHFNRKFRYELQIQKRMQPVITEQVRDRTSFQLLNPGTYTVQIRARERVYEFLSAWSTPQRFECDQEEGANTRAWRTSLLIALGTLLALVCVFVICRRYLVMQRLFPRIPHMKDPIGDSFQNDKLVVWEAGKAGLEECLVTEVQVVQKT
Test: BLI

B1: AB1 (18B4D5) (antibody, V domains shown)
VH: EVKLQESGPGLVKPSQSLSLTCTVTGYSITSDYTWNWIRQFPGNKLEWMGYISFSGSTSYNPSLKSRLSITRDTSKNQFFLQLNSVTTEDTATYYCARGLDYWGQGTTLTVSS
VL: DIVMTQSPAIMSASLGERVTMTCTASSSISSSYLYWYQQKPGSSPKLWIYSTSNLASGVPARFSGSGSGTSYSLTISSMEAEDAATYYCHQLHRSPWTFGGGTKLEIKR
Kd: < 1 pM
